Measurements reported in the supplement of paper PMC7877785.
± gives the uncertainty stated by the source.

Experiment: self-splicing fitness, log relative to wild type (ln ratio); higher = more splicing; Tetrahymena group I intron in knt gene, E. coli kanamycin selection, DiMSum; sequences stand for … in CUCUCU…GGAGGGAAAAGUUAUCAGGCAUGCACCUGGUAGCUAGUCUUUAAACCAAUAGAUUGCAUCGGUUUAAAAGGCAAGACCGUCAAAUUGCGGGAAAGGGGUCAACAGCCGUUCAGUACCAAGUCUCAGGGGAAACUUUGAGAUGGCCUUGCAAAGGGUAUGGUAAUAAGCUGACGGACAUGGUCCUAACCACGCAGCCAAGUCCUAAGUCAACAGAUCUUCUGUUGAUAUGGAUGCAGUUCACAGACUAAAUGUCGGUCGGGGAAGAUGUAUUCUUCUCAUAAGAUAUAGUCGGACCUCUCCUUAAUGGGAGCUAGCGGAUGAAGUGAUGCAACACUGGAGCCGCUGGGAACUAAUUUGUAUGCGAAAGUAUAUUGAUUAGUUUUGGAGUACUCGUGGUCG
How it was run: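 Pooled colonies went to amplicon sequencing on an Illumina HiSeq 2500 after six replicate transformations. The plates were LB agar with 100 μg/mL carbenicillin, 50 μM IPTG and 0.2% rhamnose, with or without 25 μg/mL kanamycin, incubated overnight at 37°C or 30°C. The E. coli BL21(DE3) library had all eight P1ex-region intron nucleotides randomised, the intron placed in the knt kanamycin-resistance gene on pET-22b(+). DiMSum fitness is the error-weighted combination of replicate fold changes, kanamycin against none, normalised to wild type.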

## AUUCAGCAAUAUUACGCCCC
30 °C
  self-splicing fitness (ln): 0.0239 ± 0.13
37 °C
  self-splicing fitness (ln): 0.082 ± 0.23

## CUAUAGCAAUAUUACGGAAC
37 °C
  self-splicing fitness (ln): -1.63 ± 0.49

## CAGCAGCAAUAUUACGCGGG
30 °C
  self-splicing fitness (ln): -2.78 ± 0.17
37 °C
  self-splicing fitness (ln): -2.31 ± 0.2

## UGCUAGCAAUAUUACGGAGA
37 °C
  self-splicing fitness (ln): -2 ± 0.22

## CAAAAGCAAUAUUACGUGGU
30 °C
  self-splicing fitness (ln): -3.65 ± 0.11
37 °C
  self-splicing fitness (ln): -2.49 ± 0.11

## UAUUAGCAAUAUUACGGCCA
30 °C
  self-splicing fitness (ln): -0.0346 ± 0.21
37 °C
  self-splicing fitness (ln): -0.902 ± 0.16

## AUUUAGCAAUAUUACGUGGG
30 °C
  self-splicing fitness (ln): -3.33 ± 0.3
37 °C
  self-splicing fitness (ln): -2.44 ± 0.3

## GAGUAGCAAUAUUACGUUUU
30 °C
  self-splicing fitness (ln): -2.6 ± 0.22
37 °C
  self-splicing fitness (ln): -2.12 ± 0.24

## UCACAGCAAUAUUACGUCCG
30 °C
  self-splicing fitness (ln): -1.21 ± 0.086
37 °C
  self-splicing fitness (ln): -0.358 ± 0.098

## UCCCAGCAAUAUUACGGCCA
30 °C
  self-splicing fitness (ln): -0.679 ± 0.095
37 °C
  self-splicing fitness (ln): -0.115 ± 0.12

## AACAAGCAAUAUUACGGUCU
30 °C
  self-splicing fitness (ln): -0.114 ± 0.037
37 °C
  self-splicing fitness (ln): 0.456 ± 0.054

## AAGUAGCAAUAUUACGUGUC
30 °C
  self-splicing fitness (ln): -2.83 ± 0.27
37 °C
  self-splicing fitness (ln): -2.4 ± 0.28

## CAGUAGCAAUAUUACGAGAU
30 °C
  self-splicing fitness (ln): -4.27 ± 0.46
37 °C
  self-splicing fitness (ln): -1.9 ± 0.27

## UUCAAGCAAUAUUACGUUAC
30 °C
  self-splicing fitness (ln): -3.73 ± 0.36
37 °C
  self-splicing fitness (ln): -2.72 ± 0.23

## AGGCAGCAAUAUUACGUGCG
30 °C
  self-splicing fitness (ln): -0.971 ± 0.082
37 °C
  self-splicing fitness (ln): -0.24 ± 0.11

## UAAGAGCAAUAUUACGUUCG
30 °C
  self-splicing fitness (ln): -1.48 ± 0.11
37 °C
  self-splicing fitness (ln): -0.784 ± 0.14

## AGAAAGCAAUAUUACGUGCU
30 °C
  self-splicing fitness (ln): -0.713 ± 0.063
37 °C
  self-splicing fitness (ln): -1.28 ± 0.092

## CCAGAGCAAUAUUACGGCGA
30 °C
  self-splicing fitness (ln): -3.16 ± 0.26
37 °C
  self-splicing fitness (ln): -2.65 ± 0.29

## CGCAAGCAAUAUUACGCAUC
30 °C
  self-splicing fitness (ln): -2.57 ± 0.12
37 °C
  self-splicing fitness (ln): -2.66 ± 0.12

## UAUGAGCAAUAUUACGUGAA
30 °C
  self-splicing fitness (ln): -2.98 ± 0.33
37 °C
  self-splicing fitness (ln): -1.35 ± 0.17

## UGACAGCAAUAUUACGUUUG
30 °C
  self-splicing fitness (ln): -2 ± 0.071
37 °C
  self-splicing fitness (ln): -1.03 ± 0.081

## ACGUAGCAAUAUUACGUAAA
30 °C
  self-splicing fitness (ln): -3.11 ± 0.28
37 °C
  self-splicing fitness (ln): -0.404 ± 0.19

## ACGGAGCAAUAUUACGGAGC
30 °C
  self-splicing fitness (ln): -1.67 ± 0.34

## UUUUAGCAAUAUUACGCGUC
37 °C
  self-splicing fitness (ln): -1.23 ± 0.25

## AAAAAGCAAUAUUACGCAUG
30 °C
  self-splicing fitness (ln): -0.952 ± 0.066
37 °C
  self-splicing fitness (ln): 0.04 ± 0.074

## CCAAAGCAAUAUUACGUACU
30 °C
  self-splicing fitness (ln): -3.69 ± 0.2
37 °C
  self-splicing fitness (ln): -2.76 ± 0.27

## AGACAGCAAUAUUACGAGCU
30 °C
  self-splicing fitness (ln): -1.22 ± 0.085
37 °C
  self-splicing fitness (ln): -1.15 ± 0.11

## UCCAAGCAAUAUUACGUCGA
30 °C
  self-splicing fitness (ln): -0.163 ± 0.075
37 °C
  self-splicing fitness (ln): 0.376 ± 0.1

## ACAGAGCAAUAUUACGCAAU
30 °C
  self-splicing fitness (ln): -3.59 ± 0.32
37 °C
  self-splicing fitness (ln): -2.42 ± 0.32

## CAUAAGCAAUAUUACGCGGC
30 °C
  self-splicing fitness (ln): -3.43 ± 0.28
37 °C
  self-splicing fitness (ln): -2.53 ± 0.23

## ACACAGCAAUAUUACGGGUU
30 °C
  self-splicing fitness (ln): -2.86 ± 0.077
37 °C
  self-splicing fitness (ln): -1.85 ± 0.082

## GUAGAGCAAUAUUACGAUCU
30 °C
  self-splicing fitness (ln): -0.617 ± 0.12
37 °C
  self-splicing fitness (ln): -0.114 ± 0.15

## GUGGAGCAAUAUUACGUCCU
30 °C
  self-splicing fitness (ln): -1.24 ± 0.14
37 °C
  self-splicing fitness (ln): -0.219 ± 0.14

## GGCCAGCAAUAUUACGAAGC
30 °C
  self-splicing fitness (ln): -2 ± 0.11
37 °C
  self-splicing fitness (ln): 0.134 ± 0.13

## AAUUAGCAAUAUUACGGAUC
30 °C
  self-splicing fitness (ln): -0.415 ± 0.11
37 °C
  self-splicing fitness (ln): 0.186 ± 0.12

## ACGGAGCAAUAUUACGAGUG
37 °C
  self-splicing fitness (ln): -2.8 ± 0.38

## GACCAGCAAUAUUACGAGCA
30 °C
  self-splicing fitness (ln): -1.07 ± 0.084
37 °C
  self-splicing fitness (ln): -0.284 ± 0.096

## CACGAGCAAUAUUACGUGAC
30 °C
  self-splicing fitness (ln): -2.72 ± 0.15
37 °C
  self-splicing fitness (ln): -2.44 ± 0.15

## GAUGAGCAAUAUUACGGAUG
30 °C
  self-splicing fitness (ln): -2.78 ± 0.19
37 °C
  self-splicing fitness (ln): -2.89 ± 0.26

## GCCAAGCAAUAUUACGAUCG
30 °C
  self-splicing fitness (ln): -2.24 ± 0.22
37 °C
  self-splicing fitness (ln): -2.42 ± 0.22

## AAAUAGCAAUAUUACGAGGG
30 °C
  self-splicing fitness (ln): -3.73 ± 0.19
37 °C
  self-splicing fitness (ln): -3.61 ± 0.22

## GUAUAGCAAUAUUACGCAGA
30 °C
  self-splicing fitness (ln): -2.74 ± 0.32
37 °C
  self-splicing fitness (ln): -2.71 ± 0.34

## UGGCAGCAAUAUUACGAGGC
30 °C
  self-splicing fitness (ln): -2.12 ± 0.2

## AAGCAGCAAUAUUACGUGAC
30 °C
  self-splicing fitness (ln): -3.33 ± 0.14
37 °C
  self-splicing fitness (ln): -2.38 ± 0.18

## AGAUAGCAAUAUUACGACGU
30 °C
  self-splicing fitness (ln): 0.446 ± 0.097
37 °C
  self-splicing fitness (ln): 0.203 ± 0.098

## CUUAAGCAAUAUUACGUUAA
30 °C
  self-splicing fitness (ln): -3.97 ± 0.39
37 °C
  self-splicing fitness (ln): -2.63 ± 0.32

## CAGAAGCAAUAUUACGCAUG
30 °C
  self-splicing fitness (ln): -3.89 ± 0.21
37 °C
  self-splicing fitness (ln): -2.44 ± 0.17

## CAACAGCAAUAUUACGGUUA
30 °C
  self-splicing fitness (ln): -0.258 ± 0.048
37 °C
  self-splicing fitness (ln): 0.275 ± 0.056

## GACCAGCAAUAUUACGACGU
30 °C
  self-splicing fitness (ln): -0.417 ± 0.064
37 °C
  self-splicing fitness (ln): 0.321 ± 0.078

## GGUAAGCAAUAUUACGCGUG
30 °C
  self-splicing fitness (ln): -2.42 ± 0.18
37 °C
  self-splicing fitness (ln): -0.242 ± 0.15
